Publication PMC3267895
Where two headings read alike, the source gives them in different places.

How the values were obtained:
[1] = biological target: T1, NPH-II (vaccinia virus, UniProt P12927 1-676); assay: smFRET
[2] = biological target: T1, NPH-II; assay: smFRET; remark: listed apart in the source
[3] = biological target: T1, NPH-II; assay: smFRET; remark: listed apart in the source
[4] = biological target: T1, NPH-II; assay: sucrose gradient centrifugation
[5] = biological target: T1, NPH-II; assay: sucrose gradient centrifugation; remark: listed apart in the source
[6] = biological target: T1, NPH-II; assay: sucrose gradient centrifugation; remark: listed apart in the source

B1: smFRET bipartite RNA with two extra 3' U on complementary strand (dsRNA)
RNA 1: AGCACCGUAAAGACGCAGCCAGCAUCAAUGACAUCAGCAUCAA
RNA 2: GCUGCGUCUUUACGGUGCUUU
modifications: 3' biotin on strand 2
With B1 the Kd [1] was 0.91 ± 0.12 nM, the Kd [2] was 20.8 ± 7.5 nM and the Kd [3] was < 0.01 nM.

B2: blunt-end duplex RNA 19 bp (dsRNA)
RNA 1: AGCACCGUAAAGACGCAGC
RNA 2: GCUGCGUCUUUACGGUGCU
B2: binds [4].

CAGCAUCAAUGACAUCAGCAUCAA (ssRNA) [single-stranded RNA 24 nt (overhang)]: binds [5].

B3: bipartite RNA, 19 bp duplex with 24 nt 3' overhang (dsRNA)
RNA 1: B1 RNA 1
RNA 2: GCUGCGUCUUUACGGUGCU
B3: binds [6].
